Measured values reported in US20150119254.

Key:
[1] = system: T1, VEGF-165 (Homo sapiens), P15692-4; experiment: SPR; details: for binding signal: 10 nM VEGF-165, 930 s
T1 sequence: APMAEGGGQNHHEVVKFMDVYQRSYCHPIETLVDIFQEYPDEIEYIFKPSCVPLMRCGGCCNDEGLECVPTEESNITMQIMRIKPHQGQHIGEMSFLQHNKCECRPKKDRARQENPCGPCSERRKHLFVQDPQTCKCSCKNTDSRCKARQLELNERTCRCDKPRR

IFN-gamma = molecular target: T2, IFN-gamma (UniProt P01579); experiment: SPR; details: Ds at n; for binding signal: 150 nM IFN-gamma, 930 s
T2 sequence: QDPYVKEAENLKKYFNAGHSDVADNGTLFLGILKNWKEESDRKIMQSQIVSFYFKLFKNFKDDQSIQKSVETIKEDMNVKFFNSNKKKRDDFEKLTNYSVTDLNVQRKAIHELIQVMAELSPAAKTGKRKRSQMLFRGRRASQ

[2] = Ds at n, PBS + 0.005% NP-40, 25 C

Sequence: ACTGCGTCCGAAGGGGCNTGCAGTGANCCCGAATGGGTCCG [VGd1-2Ds-41]
- Kd ([1]; Ds at n, 25 C): 0.069 nM

Sequence: ATCAGTCCACAAAGTGCTGGGTCCGNATGGCGGGGGGTTAGGCCTCTTTGGGGCGG [VG01Ds-57]
- binding signal ([1]; Ds at n): 0.2 bound ratio

Sequence: ATCAGTCCACATACGCGGGGGTGTTGAAGGGTTAGTCGGANGTAGTGTGTACAGAG [VG02bDs-57]
- binding signal ([1]; Ds at n): 0.39 bound ratio

Sequence: ATCAGTCCACATCGAGCGTGAGGTCCGAAAGGCGACTCTTNTAACATCAAGTAATG [VG02aDs-57]
- binding signal ([1]; Ds at n): 0.15 bound ratio

Sequence: ATCAGTCCACATTGGACTTAGCCCAGCAAGACAATCTACGNTATGCCAGAAGTTGG [IF02Ds-57]
- binding signal (IFN-gamma): 0.03 bound ratio

Sequence: ATCAGTCCACCTATGTGGGTTGGNTGGGGTGTATGTTNGTAGGGCTANGGAGGTGG [IF11Ds-57]
- binding signal (IFN-gamma): 0.66 bound ratio

Sequence: ATCAGTCCACGAGATGGATGGTAGTGGCCGNACGGGGGGGNTGGAGANGCTGGCTG [VG08Ds-57]
- binding signal ([1]; Ds at n): 0.21 bound ratio

Sequence: ATCAGTCCACTAATCAGGAAGANGATAGGGTTTGTCTTNTGTTGCCACGCTGGGAG [IF04Ds-57]
- binding signal (IFN-gamma): 0.1 bound ratio

Sequence: ATCAGTCCACTCCTTCTGTCATNGGGCAGGCGCNTTTGGTGTAGNGTTTATCTTGG [IF07aDs-57]
- binding signal (IFN-gamma): 0.07 bound ratio

Sequence: ATCAGTCCACTCGGGTCGTTTANTAATGTAGGTNTGGGCTAGGCNGCTAGTGGATG [IF07bDs-57 (Table 14)]
- Kd (IFN-gamma; 205 mM NaCl phosphate pH 7.4, 25 C): 0.8 nM

Sequence: ATCAGTCCACTCGGGTCGTTTANTAATGTAGGTNTGGGCTAGGCNGCTAGTGGATG [IF07bDs-57]
- Kd (IFN-gamma; Bound 0.72 (Table 13), 25 C): 2 nM

Sequence: CCGGTAAACTGCGTCCGAAGGGGCNTGCAGTGANCCCGAATGGGTCCGG [VGd1-2Ds-49]
- Kd [1, 2]: 0.0046 nM

Sequence: CGGTAAACTGCGTCCGAAGGGGCATGCAGTGAACCCGAATGGGTCCG [VGd1-2A-47]
- Kd ([1]; 25 C): 0.2 nM

Sequence: CGGTAAACTGCGTCCGAAGGGGCNTGCAGTGANCCCGAATGGGTCCG [VGd1-2Ds-47]
- Kd [1, 2]: 0.0046 nM

Sequence: GTAAACTGAGTCCGAAGGGGCNTGCAGTGANCCCGAATGGGTCCG [VG20Ds-45]
- Kd ([1]; Ds at n, 25 C): 0.022 nM

Sequence: GTAAACTGCGTCCGAAGGGGCATGCAGTGANCCCGAATGGGTCCG [VGd1-ADs-45]
- Kd ([1]; Ds at n, 25 C): 0.037 nM

Sequence: GTAAACTGCGTCCGAAGGGGCNTGCAGTGAACCCGAATGGGTCCG [VGd1-DsA-45]
- Kd ([1]; Ds at n, 25 C): 0.094 nM

Sequence: GTAAACTGCGTCCGAAGGGGCNTGCAGTGANCCCGA [VGd1-2Ds-36b]
- Kd ([1]; Ds at n, 25 C): 0.017 nM

Sequence: GTAAACTGCGTCCGAAGGGGCNTGCAGTGANCCCGAATGGG [VGd1-2Ds-41b]
- Kd ([1]; Ds at n, 25 C): 0.06 nM

Sequence: GTAAACTGCGTCCGAAGGGGCNTGCAGTGANCCCGAATGGGTCCG [VGd1-2Ds-45]
- Kd ([1]; Ds at n, 25 C): 0.016 nM

Sequence: GTCCGAAGGGGCNTGCAGTGANCCCGAATGGGTCCG [VGd1-2Ds-36]
- Kd ([1]; Ds at n, Bound 0.02, 25 C): 4.6 nM

Sequence: TCAGTCCACGGTAAACTGAGTCCGAAGGGGCNTGCAGTGANCCCGAATGGGTCCGG [VG20Ds-57]
- Kd ([1]; Ds at n, printed as uM, evidently pM, 25 C): 0.0059 nM

Sequence: TCCACTCGGGTCATTTANTAATGTAGGTNTGGGCTAGGCNGCTAGTGGA [IFd1-3Ds-49]
- Kd (IFN-gamma; 205 mM NaCl, 25 C): 1.6 nM

Sequence: TCGGGTCATTTAATAATGTAGGTATGGGCTAGGCNGCTAGTGGAT [IFd1-AADs-45]
- Kd (IFN-gamma; 205 mM NaCl, 25 C): 113 nM

Sequence: TCGGGTCATTTAATAATGTAGGTNTGGGCTAGGCNGCTAGTGGAT [IFd1-A2Ds-45]
- Kd (IFN-gamma; 205 mM NaCl, 25 C): 20 nM

Sequence: TCGGGTCATTTANTAATGTAGGTATGGGCTAGGCNGCTAGTGGAT [IFd1-DsADs-45]
- Kd (IFN-gamma; 205 mM NaCl, 25 C): 127 nM

Sequence: TCGGGTCATTTANTAATGTAGGTNTGGGCTAGGCAGCTAGTGGAT [IFd1-DsDsA-45]
- Kd (IFN-gamma; Bound 0.36): > 200 nM

Sequence: TCGGGTCATTTANTAATGTAGGTNTGGGCTAGGCNGCTAGTGGAT [IFd1-3Ds-45]
- Kd (IFN-gamma; 205 mM NaCl, 25 C): 15 nM

Sequence: TCGGGTCGTTTANTAATGTAGGTNTGGGCTAGGCNGCTAGTGGAT [IF07bDs-45]
- Kd (IFN-gamma; 205 mM NaCl, 25 C): 20 nM

Sequence: TGACCTCGGGTCATTTANTAATGTAGGTNTGGGCTAGGCNGCTAGGTCA [IFd1-3Ds-49b]
- Kd (IFN-gamma; 205 mM NaCl, 25 C): 1.1 nM

Sequence: TGTCTAAGTAAGGTGGGATTGGCGGGGATGTCGGA [Ds-09-1-AAA]
- Kd ([1]; retention 28%): > 100 nM

Sequence: TGTCTAAGTAAGGTGGGNTTGGCGGGGNTGTCGGA [Ds-09-1-ADsDs]
- Kd ([1]; Ds at n, PBS + 0.05% NP-40, 25 C, retention 94%): 1 nM

Sequence: TGTCTAAGTANGGTGGGATTGGCGGGGNTGTCGGA [Ds-09-1-DsADs]
- Kd ([1]; Ds at n, retention 33%): > 100 nM

Sequence: TGTCTAAGTANGGTGGGNTTGGCGGGGATGTCGGA [Ds-09-1-DsDsA]
- Kd ([1]; Ds at n, retention 32%): > 100 nM

Sequence: TGTCTAAGTANGGTGGGNTTGGCGGGGNTGTCGGA [Ds-09-1-DsDsDs]
- Kd ([1]; Ds at n, PBS + 0.05% NP-40, 25 C, retention 92%): 4 nM

Sequence: TGTCTAAGTANTGTGGGNTTGGAGGGGNTGTCGGA [Ds-09-1-mDsDsDs]
- Kd ([1]; Ds at n, retention 90%): 50 nM

Sequence: TTTTTGTAAACTGCGTCCGAAGGGGCNTGCAGTGANCCCGAATGGGTCCG [VGd1-2Ds-50]
- Kd ([1]; Ds at n, 25 C): 0.017 nM
